{"source": "patent US20240009137A1", "about": "“ORAL THERAPEUTIC DELIVERY” (ROYAL MELBOURNE INSTITUTE OF TECHNOLOGY, priority 2020, published 2024)", "key": {"[1]": {"conditions": "cited from earlier work"}, "[2]": {"assay": "Vancomycin in blood plasma (ELISA) after SC injection or oral capsule", "assay_type": "in vivo, Sprague Dawley rats", "procedure": "Four male Sprague Dawley rats were used as controls. Each rat was anaesthetised with isoflurane followed by preparation of the saphenous vein. The rats were given 15 mg/kg of vancomycin via SC injection, immediately following this they were placed on a heat-mat until they regained consciousness, before being housed in pairs in boxes. Blood collection (150 μl) was taken via the saphenous vein at 0, 30-, 70-, 120-, 180-, 240- and 360-mins post-injection. The blood concentration of the protein in the blood was tested using the relevant ELISA kit for each of the proteins.\nEight male Sprague Dawley rats were used. Each rat was anaesthetised with isoflurane followed by preparation of the saphenous vein and the first blood collection (150 μl). An enteric capsule with a thick polymer coating of approximately 160 μm containing 15 mg/kg of vancomycin encapsulated in MO lipid cubic phase was then introduced via oral gavage into the rat stomach. Immediately following this they were placed on a heat-mat until they regained consciousness, before being housed in pairs. Blood collection (150 μl) was taken via the saphenous vein at 0, 35-, 50-, 120-, 180-, 240- and 360-mins post-injection.\nAll data are analysed on a Clariostar Plate Reader to determine concentration against a standard curve for the relevant drug.\nConcentrations provided in FIGS. 10-13 are the measured concentration of the drug in the blood plasma (determined using specific Elisa kits) and are in units of ng/ml. The initial drug concentration measured at the 0 time point has been set to zero in each case and other data scaled relative to this."}, "[3]": {"assay": "Release of insulin from bulk cubic phase (A280 of supernatant; Ritger-Peppas and Higuchi fits)", "assay_type": "physicochemical", "procedure": "This mixture was then injected into a 1.5 mL Eppendorf tube and centrifuged at 1200 RPM for 1 min to achieve a flat surface. The height of this surface was measured to determine the diameter for subsequent surface area calculations. 150 μl of water was added on top of the cubic phase and immediately removed for T=0 time point. 150 μl of supernatant fluid was removed every 30 min over a 12 hour period for analysis and replaced with a further […] of water. A final reading was taken at 22 hour.\nMt, M0, k and n are the released quantity at time t, initial quantity encapsulated, fitting coefficient and fitting exponent, respectively. This allows for the coupling of multiple release mechanisms (e.g., diffusion-controlled, zero-order) where the diffusional exponent n, is indicative of the release mechanism and geometry of the interface and the fitting coefficient k reflects characteristics of both the matrix and the solute.\nwhere Q, C0 and D are the released concentration per unit area, initial concentration per unit volume and the diffusion coefficient, respectively. Diffusion control dictates that the release profile against √t should be linear. […] The determined parameters were compared to those found during FRAP analysis (DFRAP)."}, "chymotrypsin": {"target": "T1, chymotrypsin (Bos taurus, UniProt P00766)", "T1 construct": "purchased Sigma Aldrich (Australia)", "assay": "Enzymatic degradation of insulin by chymotrypsin followed by synchrotron CD (Dichroweb)", "assay_type": "in vitro ADME", "procedure": "SR-CD measurements were conducted in the 170-350 nm region using the CD beamline of the synchrotron radiation source ASTRID2 at ISA, Centre for Storage Ring Facilities at Aarhus University (Denmark). Suprasil Quartz cells (Hellma GmbH & Co., Germany) of nominal 0.1 mm path length (actual calibrated path lengths=102.3 and […]), requiring an approximately 30 μl sample volume, were used for measurements at 37° C. in a temperature-regulated sample holder. […] The sample measurements were obtained at 1 nm increments in wavelength, 1 sec averaging time and 1 scan for each sample. Data were mildly smoothed with a 5-point moving mean in Matlab. The online service DichroWeb was used for secondary structure content analysis of the CD spectra using the CONTIN routine and the SP175 reference set.\nChymotrypsin, which is typically found in the small intestine, was utilized as a model enzyme."}, "[4]": {"assay": "Fluorescence recovery after photobleaching (FRAP), diffusion coefficient", "assay_type": "physicochemical", "procedure": "FRAP was performed on a Nikon confocal microscope. […] A bleaching and background region of interest (ROI) was used to selectively photobleach an area of the cubic phase and the fluorescence recovery curve was recorded with time. The excitation/emission wavelengths used were 553/627 nm for the octadecyl rhodamine B chloride. […] […] The open source Matlab code frap_analysis_2p5 was used to determine diffusion coefficients μ from FRAP data."}, "[5]": {"conditions": "oral enteric capsule, MO cubic phase, 15 mg/kg"}, "[6]": {"conditions": "insulin in water 0.2 mg/ml, chymotrypsin 0.02 mg/ml, time 0 min"}, "[7]": {"conditions": "insulin in water 0.2 mg/ml, chymotrypsin 0.02 mg/ml, time 2 min"}, "[8]": {"conditions": "insulin in water 0.2 mg/ml, chymotrypsin 0.02 mg/ml, time 12 min"}}, "note": "“And” between values parts separate entries of the source, which are not always exact repeats. Equal entries are not always repeated."}
{"compound": "CC(C)CCCC(C)CCCC(C)CCCC(C)(O)C(O)CO", "note": "(stereo not shown) [PT, phytantriol]", "values": [{"measurement": "lipid self-diffusion coefficient", "setting": "[1]; measured using NMR in a previous study", "value": "0.3 ×10^−6 cm^2 s^−1"}]}
{"compound": "CN[C@H](CC(C)C)C(=O)N[C@H]1C(=O)N[C@@H](CC(N)=O)C(=O)N[C@H]2C(=O)N[C@H]3C(=O)N[C@H](C(=O)N[C@H](C(=O)O)c4cc(O)cc(O)c4-c4cc3ccc4O)[C@H](O)c3ccc(c(Cl)c3)Oc3cc2cc(c3O[C@@H]2O[C@H](CO)[C@@H](O)[C@H](O)[C@H]2O[C@H]2C[C@](C)(N)[C@H](O)[C@H](C)O2)Oc2ccc(cc2Cl)[C@H]1O", "note": "[vancomycin]", "values": [{"measurement": "time by which baseline values are reached", "setting": "[2]; SC injection 15 mg/kg", "value": "≤ 180", "unit": "min"}, {"measurement": "time of maximum plasma concentration", "setting": "[2]; SC injection 15 mg/kg", "value": 30, "unit": "min"}, {"measurement": "maximum drug concentration in blood plasma", "setting": "[2]; SC injection 15 mg/kg, four rats", "value": "approximately 1500 ng/ml"}, {"measurement": "bioavailability", "setting": "[2]; male, Sprague-Dawley, rat, plasma, oral enteric capsule vs SC, 15 mg/kg, read-out: overall bioavailability as % of that following SC injection", "value": 73.9, "unit": "%"}, {"measurement": "maximum drug concentration in blood plasma", "setting": "[2]; oral enteric capsule (approx. 160 μm coating), MO cubic phase, 15 mg/kg, range over rats", "value": "790 to 960", "unit": "ng/mL"}, {"measurement": "maximum drug plasma concentration as % of that following SC injection", "setting": "[2]; oral enteric capsule vs SC, 15 mg/kg", "value": 57, "unit": "%"}, {"measurement": "time by which baseline drug concentrations are reached", "setting": "[2]; [5]", "value": "≤ 180", "unit": "min"}, {"measurement": "time of maximum plasma concentration", "setting": "[2]; [5]", "value": 50, "unit": "min"}]}
{"compound": "Insulin: human recombinant insulin (Sigma Aldrich); FITC labelled insulin used for FRAP; free or encapsulated in MO or PT cubic phase", "values": [{"measurement": "insulin released over the first two hours", "setting": "[3]; from MO bulk cubic phase", "value": "approximately 15%"}, {"measurement": "release over a 24 h period", "setting": "[3]; from MO bulk cubic phase", "value": "approximately 50%"}, {"measurement": "insulin released over the first two hours", "setting": "[3]; from PT bulk cubic phase", "value": "approximately 25%"}, {"measurement": "release over a 24 h period", "setting": "[3]; from PT bulk cubic phase", "value": 60, "unit": "%"}, {"measurement": "insulin released over 2-hour time period", "setting": "[3]; from the cubic phase (lipid not specified)", "value": "approximately 20%"}, {"measurement": "k, fitting coefficient (Ritger-Peppas model)", "setting": "[3]; insulin release from MO", "value": "0.88 ± 0.06"}, {"measurement": "time to 20% release", "setting": "[3]; release from MO bulk cubic phase into aqueous sink", "value": "~4", "unit": "h"}, {"measurement": "time to 20% release", "setting": "[3]; release from PT bulk cubic phase into aqueous sink", "value": "~2", "unit": "h"}, {"measurement": "far UV CD spectrum, secondary structure", "setting": "chymotrypsin; insulin 0.2 mg/ml encapsulated in PT cubic phase, 30 min after addition of chymotrypsin", "value": "still largely a-helical"}, {"measurement": "far UV CD spectrum, secondary structure", "setting": "chymotrypsin; insulin 0.2 mg/ml in water, 30 min after addition of chymotrypsin", "value": "largely unordered"}, {"measurement": "near-UV CD minimum at 270 nm", "setting": "chymotrypsin; insulin 0.5 mg/ml in MO bulk cubic phase, 132 min after addition of chymotrypsin 0.05 mg/ml", "value": "may still be observed"}, {"measurement": "far UV CD spectrum, secondary structure", "setting": "chymotrypsin; insulin encapsulated in PT cubic phase, 2 hours after addition of chymotrypsin", "value": "retention of a-helical structures"}, {"measurement": "duration of protection against enzymatic degradation after addition of chymotrypsin", "setting": "chymotrypsin; insulin in lipid nanocarrier in the form of a mesophase", "value": "at least 2 hours"}, {"measurement": "time by which the near-UV CD minimum at 270 nm has essentially disappeared", "setting": "chymotrypsin; insulin in solution 0.5 mg/ml, chymotrypsin 0.05 mg/ml", "value": "≤ 9", "unit": "min"}, {"measurement": "Unordered(%)", "setting": "chymotrypsin; [6]", "value": 8, "unit": "%"}, {"measurement": "β-sheet(%)", "setting": "chymotrypsin; [6]", "value": 0, "unit": "%"}, {"measurement": "β-turns(%)", "setting": "chymotrypsin; [6]", "value": 3, "unit": "%"}, {"measurement": "β-sheet(%)", "setting": "chymotrypsin; [7]", "value": 0, "unit": "%"}, {"measurement": "β-turns(%)", "setting": "chymotrypsin; [7]", "value": 9, "unit": "%"}, {"measurement": "β-sheet(%)", "setting": "chymotrypsin; insulin in water 0.2 mg/ml, chymotrypsin 0.02 mg/ml, time 6 min", "value": 2, "unit": "%"}, {"measurement": "Unordered(%)", "setting": "chymotrypsin; [8]", "value": 41, "unit": "%"}, {"measurement": "α-helix(%)", "setting": "chymotrypsin; [8]", "value": "41% and 41.2%"}, {"measurement": "time to complete degradation", "setting": "chymotrypsin; insulin in water, no protective matrix, chymotrypsin added", "value": "less than 35 min"}, {"measurement": "Diffusion Coefficient", "setting": "[4]; MO QII^D phase at the water interface (DFRAP)", "value": "2.89 ×10^−6 cm^2 s^−1"}, {"measurement": "Diffusion Coefficient", "setting": "[4]; PT QII^D phase at the water interface (DFRAP)", "value": "4.36 ×10^−6 cm^2 s^−1"}, {"measurement": "Diffusion Coefficient", "setting": "[4]; in MO QII^D bulk cubic phase (insulin: FITC labelled, 5 mg/ml)", "value": "2.29 ×10^−6 cm^2 s^−1"}, {"measurement": "Diffusion Coefficient", "setting": "[4]; in PT QII^D bulk cubic phase (insulin: FITC labelled, 5 mg/ml)", "value": "4.17 ×10^−6 cm^2 s^−1"}, {"measurement": "Diffusion Coefficient", "setting": "[4]; in solution (free, FITC labelled insulin)", "value": "6.56 ×10^−6 cm^2 s^−1"}, {"measurement": "Diffusion Coefficient", "setting": "[4]; in solution (free, FITC labelled insulin), listed as insulin", "value": "6.6 ×10^−6 cm^2 s^−1"}, {"measurement": "diffusion coefficient higher at the interface compared to in the bulk", "setting": "[4]; stated for both lipids (MO and PT)", "value": "approximately 15%"}, {"measurement": "diffusion coefficient in water", "setting": "[1]; previously provided in the literature", "value": "1.5 ×10^−6 cm^2 s^−1"}]}
